{"source": "patent US9803013B2", "about": "“Biological materials and uses thereof” (BioInvent International AB, priority 2005, dated 2017)", "key": {"[1]": {"test_system": "RPMI-8226 myeloma cells", "assay": "Advanced disseminated MM model, i.v. grafted RPMI-8226 in SCID mice", "assay_type": "in vivo, mouse", "details": "2 mg/kg from five days after i.v. grafting; compared to bortezomib, lenalidomide, melphalan or dexamethasone", "text": "To assess the therapeutic potential of BI-505 for treatment of MM, the anti-myeloma effects of BI-505 were compared to current gold-standard treatment in disseminated experimental models of MM sharing characteristics with human disease. These models resemble the manifestation and progression of human MM disease in many respects, including tumor dissemination and establishment in bone marrow, and the appearance of osteolytic bone-lesions and hypercalcemia (Mitsiades et al., 2003; Yaccoby et al., 1998). Firstly, the anti-myeloma activity of BI-505 was compared with currently used treatments in an advanced disseminated MM model comprising RPMI-8226 myeloma cells. In this model, therapeutic treatment with 2 mg/kg BI-505 was started five days after intravenous grafting of MM cells to allow for homing and establishment of MM cells in bone marrow.\nAll studies were conducted in accordance with guidelines of the Lund University Hospital, Sweden or University of Utah, Salt Lake City, USA following approval from the local ethical committee for animal care and use. […] The role of macrophages and NK cells for BI-505 in vivo antitumor activity was assessed using anti-asialo antibody treatment, clodronate liposome treatment or NK-cell deficient mice. […]"}, "[2]": {"test_system": "Daudi B cell lymphoma xenografts", "assay": "SCID/Daudi B cell lymphoma subcutaneous xenograft model", "details": "one day following tumor cell injection or established tumors"}}, "data": [{"molecule": "B11: fully human IgG1 antibody specific for ICAM-1; VH and VL sequences of FIG. 10 (SEQ ID NOs. 6 and 8) (antibody, listed as Homo sapiens, V domains shown) VH: EVQLLESGGGLVQPGGSLRLSCAASGFTFSNAWMSWVRQAPGKGLEWVAFIWYDGSNKYYADSVKGRFTISRDNSKNTLYLQMNSLRAEDTAVYYCARYSGWYFDYWGQGTLVTVSS VL: QSVLTQPPSASGTPGQRVTISCTGSSSNIGAGYDVHWYQQLPGTAPKLLIYDNNNRPSGVPDRFSGSKSGTSASLAISGLRSEDEADYYCQSYDSSLSAWLFGGGTKLTVLG", "values": [{"measurement": "survival and disease onset", "setting": "[1]", "result": "significantly enhanced survival and delayed disease onset"}, {"measurement": "survival", "setting": "[2]", "result": "prolonged survival"}, {"measurement": "tumor growth", "setting": "[2]", "result": "significantly prevented tumor growth"}]}]}
